Literature values as cited in paper PMC5453503.
Several values for one entry are separate records, joined by “and”; a condition that tells them apart may be missing. Identical values can stand only once.

Target: VEGFR2 (Homo sapiens) (UniProt P35968)
UniProt P35968, sequence (P35968 20-1356): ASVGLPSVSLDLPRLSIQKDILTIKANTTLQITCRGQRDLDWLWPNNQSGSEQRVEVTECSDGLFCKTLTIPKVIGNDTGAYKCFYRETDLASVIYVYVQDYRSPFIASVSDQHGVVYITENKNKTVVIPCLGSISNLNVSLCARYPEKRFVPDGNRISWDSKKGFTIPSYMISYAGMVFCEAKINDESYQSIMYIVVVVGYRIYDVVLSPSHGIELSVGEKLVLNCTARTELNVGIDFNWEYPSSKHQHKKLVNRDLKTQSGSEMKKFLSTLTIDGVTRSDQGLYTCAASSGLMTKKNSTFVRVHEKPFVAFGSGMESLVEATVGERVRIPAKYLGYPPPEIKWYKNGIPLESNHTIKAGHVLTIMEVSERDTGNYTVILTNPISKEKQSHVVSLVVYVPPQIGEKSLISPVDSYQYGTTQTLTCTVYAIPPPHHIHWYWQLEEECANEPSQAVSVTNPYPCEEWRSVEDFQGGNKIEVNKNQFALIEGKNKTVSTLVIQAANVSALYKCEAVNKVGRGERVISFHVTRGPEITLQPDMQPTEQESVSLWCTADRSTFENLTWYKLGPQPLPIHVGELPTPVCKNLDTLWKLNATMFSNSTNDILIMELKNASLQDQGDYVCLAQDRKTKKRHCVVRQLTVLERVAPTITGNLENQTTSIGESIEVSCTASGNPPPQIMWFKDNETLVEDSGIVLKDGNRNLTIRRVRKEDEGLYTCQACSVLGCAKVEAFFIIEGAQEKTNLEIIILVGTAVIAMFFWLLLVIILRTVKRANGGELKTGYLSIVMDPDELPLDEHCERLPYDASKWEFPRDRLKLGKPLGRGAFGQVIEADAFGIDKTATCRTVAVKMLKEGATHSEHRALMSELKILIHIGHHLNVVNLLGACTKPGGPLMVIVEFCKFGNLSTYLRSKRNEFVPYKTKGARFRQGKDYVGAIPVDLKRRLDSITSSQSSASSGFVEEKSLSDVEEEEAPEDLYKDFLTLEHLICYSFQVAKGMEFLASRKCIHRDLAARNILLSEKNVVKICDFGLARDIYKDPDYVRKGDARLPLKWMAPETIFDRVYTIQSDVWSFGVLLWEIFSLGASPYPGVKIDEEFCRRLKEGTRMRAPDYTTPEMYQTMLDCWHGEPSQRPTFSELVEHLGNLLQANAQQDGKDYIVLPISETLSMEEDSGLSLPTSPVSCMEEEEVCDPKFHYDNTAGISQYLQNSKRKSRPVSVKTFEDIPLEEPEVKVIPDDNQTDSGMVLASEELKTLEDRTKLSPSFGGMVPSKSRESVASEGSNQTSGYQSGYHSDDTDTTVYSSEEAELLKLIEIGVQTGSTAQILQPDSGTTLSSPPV

**Q.** For VEGF165a (from UniProt P15692), which Kd is on record?
**A.** Its Kd is 0.41 nM and 0.76 nM.
